Target: F-actin (chicken, UniProt P68139 1-377)
Assay: co-sedimentation

- Kd: > 20 mM
B1: supervillin headpiece, wild type (domain or fragment)
chain: LAKLCKTIYPLADLLARPLPEGVDPLKLEIYLTDEDFEFALDMTRDEYNALPAWKQVNLKKAKGLF

— PMC2760644 (Journal of molecular biology, 2009)
